In patent publication US20230050449A1, “METHODS FOR TREATING CANCER USING A COMBINATION OF A PD-1 ANTAGONIST, AN ILT4 ANTAGONIST, AND CHEMOTHERAPEUTIC AGENTS” (Merck Sharp & Dohme LLC, priority 2019, published 2023):

System: participants with advanced solid tumors
Assay: Phase 1 open label, multi-arm, multi-center study of MK-4830 as monotherapy or in combination with pembrolizumab (NCT03564691): safety and tolerability
Format: in vivo, human
Procedure: A phase 1 open label, multi-arm, multi-center study of an anti-ILT4 antibody (“MK-4830”) as monotherapy or in combination with pembrolizumab for participants with advanced solid tumors has been ongoing (NCT03564691).
At the time of the May 10, 2019 data cutoff, a total of 51 participants had received at least 1 dose of MK-4830. In the ongoing MK-4830 monotherapy phase, MK-4830 monotherapy had reached the maximum planned dose level of 1600 mg. In the ongoing MK-4830 plus pembrolizumab combination phase, MK-4830 dose level had reached a maximum dose of 800 mg.
The target dose limiting toxicity (DLT) rate was not reached in any of the cohorts and the maximum tolerated dose (MTD) was not defined.
The most common study-drug related AEs in all participants were arthralgia (9.8%), fatigue (9.8%), decreased appetite (7.8%), diarrhea (7.8%), and pruritus (7.8%). There was one episode of transient Grade 3 blood pressure increase at the 1600 mg dose level in the MK-4830 monotherapy cohort. There were no Grade 4 or 5 drug-related AEs or SAEs.

[1] = of the total 51 treated participants, preliminary data

“MK-4830: anti-ILT4 antibody; light chain SEQ ID NO:5, heavy chain SEQ ID NO:10 (Table 4)” was tested, and the “episodes of transient Grade 3 blood pressure increase” value (1600 mg dose level, MK-4830 monotherapy cohort) was “one episode”, the “grade of the majority of drug-related AEs” value (51 treated participants, preliminary data) was “Grade 1” and the “Grade 4 or 5 drug-related AEs or SAEs” value (all 51 treated participants) was “no”. The “study-drug related AE: arthralgia” value (all participants (51 treated)) was 9.8%, the “study-drug related AE: decreased appetite” value (all participants (51 treated)) was 7.8% and the “study-drug related AE: diarrhea” value (all participants (51 treated)) was 7.8%. The “study-drug related AE: fatigue” value (all participants (51 treated)) was 9.8%, the “study-drug related AE: pruritus” value (all participants (51 treated)) was 7.8% and the “target dose limiting toxicity (DLT) rate” value (any of the cohorts, monotherapy up to 1600 mg, combination with pembrolizumab up to 800 mg, May 10, 2019 data cutoff) was “not reached”. For the same substance, the “maximum tolerated dose (MTD)” value (monotherapy up to 1600 mg, combination with pembrolizumab up to 800 mg, May 10, 2019 data cutoff) was “not defined”, the “participants with one or more drug-related AEs (number)” value [1] was 26 and the “participants with one or more drug-related AEs (percent)” value [1] was 51%.
